Two molecules from patent publication US20080305517A1, “Transglutaminase Crosslinked Collagen Biomaterial for Medical Implant Materials” (ASTON UNIVERSITY, priority 2004, published 2008) can be followed below.

The test system of one series is Type I collagen. Put plainly: Collagen fibril formation rate (turbidity at 325 nm), type I collagen. The series is classed as biochemical, calf. As for the experimental part:
FIG. 1. Type I collagen fibrillogenesis after neutralisation in the presence of transglutaminases. Collagen (3 mg/ml) was neutralised as in the methods and was treated with 0, 50 or 250 μg/ml of microbial TG (A) or tTG (B). 500 μM of the TGase inhibitor N-Benzyloxycarbonyl-L-phenylalanyl-6-dimethyl-sulfonium-5-oxo-L-norleucine (‘R281’) was used to confirm that the effects were due to transglutaminase activity. The absorbance at 325 nm was measured using a PYE Unicam SP1800 UV spectrophotometer. The temperature was controlled at 25° C. using a Techne C-85A circulator. Results are from the average of 3 independent experiments.
(§1) Collagen fibrillogenesis was monitored by measuring the absorbance (turbidity) at 325 nm using a PYE Unicam SP1800 UV spectrophotometer.

The next series deals with Type III collagen. The series can be described thus: Collagen fibril formation rate (turbidity at 325 nm), type III collagen. It counts as biochemical. As for the experimental part: FIG. 2. Type III collagen fibrillogenesis after neutralisation in the presence of transglutaminases. Collagen (3 mg/ml) was neutralised as in the methods and was treated with 0, 50 or 250 μg/ml of mTG (A) or tTG (B). 500 μM inhibitor R281 was used to confirm that the effects were due to transglutaminase activity. The absorbance at 325 nm was measured using a PYE Unicam SP1800 UV spectrophotometer. The temperature was controlled at 25° C. using a Techne C-85A circulator. Results are from the average of 3 independent experiments.
as §1

Series [1] is described as follows: Determination of ε-(γ-glutamyl)lysine cross-link (ion exchange amino acid analysis of digested collagen). The series is classed as physicochemical. The conditions noted are these: for the equivalent (μg of protein) TG concentration. As for the experimental part: Neutralised collagen mixture was subjected to treatment by both tissue and microbial TG. Samples of the neutralised collagen were treated with 50-1000 μg/ml of tTG, in a reaction mix consisting of 2 mM DTT and 5 mM CaCl2 in 10 mM Tris buffer (pH 7.4). The reaction mixture for the microbial enzyme simply consisted of 10 mM Tris buffer (pH 7.4). Incorporated fibronectin (Sigma-Aldrich, Poole, UK. Cat no. F0895) was used at concentrations of 5 μg/ml and 50 μg/ml. Transglutaminase was always added last to the collagen-reaction mix to minimise any self-imposed cross-linking. […]
Cross-linked and native samples of collagen were proteolytically digested by a modification of the methods of Griffin and Wilson (1984), which included an initial digestion with microbial collagenase (Clostridium histolyticum; 1 mg/ml, Sigma-Aldrich, Poole, UK. Cat no. C9891), prior to the addition of further proteases. […] Derivatisation was performed post column using o-pthaldialdehyde (0.8M boric acid, 0.78M potassium hydroxide, […] o-phthaldialdehyde, 0.5% (v/v) methanol, 0.75% (v/v) 2-mercaptoethanol, 0.35% (v/v) Brij 30) and the absorbance was measured at 450 nm. Dipeptide was determined by addition of known amounts of ε(γ-glutamyl)lysine to the sample and comparing peak areas.

The test system of a further series is N,N′-dimethylcasein. The series can be described thus: Transglutaminase activity: incorporation of [14-C]-putrescine into N,N′-dimethylcasein. The series is classed as biochemical. The conditions noted are these: Unit = 1 nmol of putrescine incorporated per hour. The source says: The incorporation of [14-C]-putrescine into N,N′-dimethylcasein, as described earlier by Lorand et al. (1972) was used to assay for TG activity and monitor the effects of the inhibitors. Unit of transglutaminase activity is 1 nmol of putrescine incorporated per hour.

[2] abbreviates: 50 μg or 250 μg of TG, collagen 3 mg/ml, absorbance at 325 nm, 25° C., vs untreated.

Turning to `C[S+](C)CC(=O)CC[C@H](NC(=O)[C@H](Cc1ccccc1)NC(=O)OCc1ccccc1)C(=O)O.[Br-]` [R281, N-Benzyloxycarbonyl-L-phenylalanyl-6-dimethylsulfonium-5-oxo-L-nor-leucine bromide salt, reference compound], the “inhibition of the transglutaminase effects on fibrillogenesis” value with Type I collagen (500 μM inhibitor) and with Type III collagen (500 μM inhibitor) was “abolished these effects” each time.

B1: mTG: Microbial transglutaminase from Streptoverticillium mobaraenase, purified from Activa WM (Ajinomoto) (protein, UniProt P81453 77-407, looked up)
Protein-glutamine …: DSDDRVTPPAEPLDRMPDPYRPSYGRAETVVNNYIRKWQQVYSHRDGRKQQMTEEQREWLSYGCVGVTWVNSGQYPTNRLAFASFDEDRFKNELKNGRPRSGETRAEFEGRVAKESFDEEKGFQRAREVASVMNRALENAHDESAYLDNLKKELANGNDALRNEDARSPFYSALRNTPSFKERNGGNHDPSRMKAVIYSKHFWSGQDRSSSADKRKYGDPDAFRPAPGTGLVDMSRDRNIPRSPTSPGEGFVNFDYGWFGAQTEADADKTVWTHGNHYHAPNGSLGAMHVYESKFRNWSEGYSDFDRGAYVITFIPKSWNTAPDKVKQGWP
As to B1, the “amount of isopeptide formed, comparison in words” value in series [1] was “much greater increase (almost two-fold)”. In addition, in the series on N,N′-dimethylcasein, the “Activity of the transglutaminase used to pre-treat collagen for the cell experiments” value was 16000 Units/mg and the “Typical activities for the transglutaminases used” value was 16000-25000 Units/mg. In the series with Type I collagen (setting [2]), the “time taken to achieve gel formation” value is reported as “significant reduction”. The “time taken to achieve gel formation” value in the series on Type III collagen (setting [2]) is “significant reduction”.
